In publication PMC9015148 (2022):

Columns and labels:
RSV_FixBB = RSV_FixBB (UniProt P0AFA2); assay: SPR
Surf_03 = Surf_03 (UniProt P0AFA2); assay: SPR

B1: D25 Fab (Fab, V domains shown)
VH: QVQLVQSGAEVKKPGSSVMVSCQASGGPLRNYIINWLRQAPGQGPEWMGGIIPVLGTVHYAPKFQGRVTITADESTDTAYIHLISLRSEDTAMYYCATETALVVSTTYLPHYFDNWGQGTLVTVSS
VL: DIQMTQSPSSLSAAVGDRVTITCQASQDIVNYLNWYQQKPGKAPKLLIYVASNLETGVPSRFSGSGSGTDFSLTISSLQPEDVATYYCQQYDNLPLTFGGGTKVEIK
For B1, the Kd (RSV_FixBB) was 0.099 µM and the Kd (Surf_03) was 0.36 µM.
